Experimental data published in patent US20210163624A1 (Memorial Sloan Kettering, published 2021).

Assays:
[1] = target: T1, RHAMM-R3 peptide/HLA-A0201 complex on T2 cells (human); experiment: flow cytometry, scFv phage on T2 cells pulsed with RHAMM-3 peptide
T1 construct: also called RHAMM-3; R3/HLAA0201

[2] = target: T2, HLA-A0201 molecule on T2 cells alone (no peptide pulsed) (human); experiment: flow cytometry, scFv phage on T2 cells without peptide
T2 construct: No exogenous peptide; It is also the MHC partner in the T2 stabilization assay; also called T2 alone; HLA-A2 molecule

[3] = target: T3, RMF peptide (…)/HLA-A0201 complex on the cell surface (human); experiment: flow cytometry, scFv phage on T2 cells pulsed with WT1A peptide; scFv phage on T2 cells pulsed with WT1-A (RMF) peptide, 50 µg/ml
T3 construct: Either on T2 cells pulsed with the synthetic peptide, or naturally processed and presented on WT1+ HLA-A0201+ tumour cells; The assay field of each row says which; also called WT1p/A2 complex; WT1/A2

[4] = target: T4, Biotinylated single chain WT1 peptide/HLA-A0201 complex (recombinant, refolded) (human, biotinylated (site not stated)); experiment: kinetic binding analysis, sensorgram in nm against time (sec) with fit; column kD [M]
T4 construct: also called WT1/A2; HLA-A0201/WT1 peptide complex

[5] = target: T4, Biotinylated single chain WT1 …; experiment: kinetic binding analysis, sensorgram in nm against time (sec) with fit; column kd [1/s]; Error in kd 2.25E-5
[6] = target: T4, Biotinylated single chain WT1 …; experiment: kinetic binding analysis, sensorgram in nm against time (sec) with fit; column ka [1/Ms]
[7] = target: T2, HLA-A0201 molecule on T2 cells alone …; experiment: flow cytometry, live T2 cells without peptide (0 µg/ml group)
[8] = target: T5, WT1-A1 heteroclitic peptide (tyrosine at position 1 of RMF)/HLA-A0201 complex on T2 cells (human); experiment: flow cytometry, live T2 cells pulsed with graded WT1-A1 peptide
[9] = target: T1, RHAMM-R3 peptide/HLA-A0201 complex on …; experiment: flow cytometry, live T2 cells pulsed with graded RHAMM-R3 peptide
[10] = target: T4, Biotinylated single chain WT1 …; experiment: kinetic binding analysis, sensorgram in nm against time (sec) with fit; column kd [1/s]; Error in kd 1.12E-4
[11] = target: T3, RMF peptide (…)/HLA-A0201 complex on …; experiment: flow cytometry, scFv phage on T2 cells pulsed with WT1A peptide
[12] = target: WT1A1-B peptide (…)/HLA-A0201 complex on T2 cells (human); experiment: flow cytometry, T2 cells pulsed with WT1-A1-B peptide
[13] = target: T3, RMF peptide (…)/HLA-A0201 complex on …; experiment: radioimmunoassay with 125-I-labeled WT1 ab1 on JMN cells, Scatchard analysis (bivalent IgG1, avidity)
[14] = target: T6, EW peptide/HLA-A0201 complex on T2 cells (human); experiment: flow cytometry on T2 cells pulsed with EW peptide
T6 construct: also called Ewing sarcoma-derived peptide

[15] = target: T5, WT1-A1 heteroclitic peptide (tyrosine …); experiment: flow cytometry, T2 cells pulsed with WT1-A1 peptide
[16] = target: T1, RHAMM-R3 peptide/HLA-A0201 complex on …; experiment: flow cytometry, T2 cells pulsed overnight with graded RHAMM-R3 peptide
[17] = target: T2, HLA-A0201 molecule on T2 cells alone …; experiment: flow cytometry, T2 cells without peptide (0 µg/ml point)
[18] = target: T2, HLA-A0201 molecule on T2 cells alone …; experiment: T2 stabilization assay, HLA-A2 detected with mAb BB7
[19] = target: T1, RHAMM-R3 peptide/HLA-A0201 complex on …; experiment: phage ELISA on the recombinant R3/HLA-A0201 complex (R3), not on cells

B1: scFv phage clone 18 (scFv)
scFv: QSVVTQPPSVSVAPGKTARITCGRNNIGSKSVHWYQQKPGQAPVLVVYDDSDRPSGIPERFSGSNSGNTATLTISRVEAGDEADYYCQVWDSSSDHVVFGGGTKLTVLGSRGGGGSGGGGSGGSLEMAEVQLVQSGGGVVRPGGSLRLSCAASGFTFDDYGMSWVRQAPGKGLEWVSGINWNGGSTGYADSVRGRFTISRDNAKNSLYLQMNSLRAEDTALYYCARERGYGYHDPHDYWGQGTLVTVSS
notes: also called Ext002 #18
binding result [1]: no binding | binding result [2]: no binding | binding result [3]: binds

B2: mAb 15 (mAb clone 15) (antibody, V domains shown)
VH: QVQLVQSGAEVKKPGESLKISCKGSGYNFSNKWIGWVRQLPGRGLEWIAIIYPGYSDITYSPSFQGRVTISADTSINTAYLHWHSLKASDTAMYYCVRHTALAGFDYWGLGTLVTVSS
VL: DIQMTQSPSTLSASVGDRVTITCRASQNINKWLAWYQQRPGKAPQLLIYKASSLESGVPSRFSGSGSGTEYTLTISSLQPDDFATYYCQQYNSYATFGQGTKVEIKR
notes: The legends call it mAb 15 or clone 15; also called Ext002 #15
Kd [4]: 7.68 nM | koff [5]: 0.00188 s⁻¹ | kon [6]: 245000 M⁻¹ s⁻¹

B3: mAb 5 (mAb clone 5) (antibody, V domains shown)
VH: QVQLQQSGPGLVKPSQTLSLTCAISGDSVSSNSAAWNWIRQSPSRGLEWLGRTYYGSKWYNDYAVSVKSRITINPDTSKNQFSLQLNSVTPEDTAVYYCARGRLGDAFDIWGQGTMVTVSS
VL: not shown
notes: The legends call it mAb 5 or mAb clone 5; also called Ext002 #5
Kd [4]: 11.7 nM | binding result [7]: no binding (tested: mAb concentration not on the sheet) | binding result [8]: no binding | binding result [9]: no binding | koff [10]: 0.00548 s⁻¹ | kon [6]: 468000 M⁻¹ s⁻¹

B4: scFv phage clone 3 (scFv)
scFv: QTVVTQPPSASGTPGQRVTISCSGSSSNIGSNYVYWYQQLPGTAPKLLIYRSNQRPSGVPDRFSGSKSGTSASLAISGPRSVDEADYYCAAWDDSLNGVVFGGGTKLTVLGSRGGGGSGGGGSGGGSLEMAQVQLVQSGAEVKKPGSSVKVSCKASGGTFSSYAISWVRQAPGQGLEWMGGIIPIFGTANYAQKFQGRVTITADESTSTAYMELSSLRSEDTAVYYCARRIPPYYGMDVWGQGTTVTVSS
notes: also called Ext002 #3; EXT002-3
binding result [11]: binds | binding result [1]: no binding | binding result [2]: no binding

B5: WT1 ab1, full-length human IgG1 (antibody, V domains shown)
VH: QMQLVQSGAEVKEPGESLRISCKGSGYSFTNFWISWVRQMPGKGLEWMGRVDPGYSYSTYSPSFQGHVTISADKSTSTAYLQWNSLKASDTAMYYCARVQYSGYYDWFDPWGQGTLVTVSS
VL: not shown
notes: No single sentence says that WT1 ab1 is clone #13; also called Mab WT1 ab1; ESK1
binding result [12]: no binding (tested: mAb concentration not on the sheet) | Kd [13]: ~0.2 nM | binding result [14]: no binding | binding result [15]: no binding (tested: mAb concentration not on the sheet) | binding result [16]: no binding (tested: mAb 1 µg/ml; peptide 50 µg/ml) | binding result [17]: no binding (tested: mAb 1 µg/ml)

B6: scFv phage clone 15 (scFv)
scFv: DIQMTQSPSTLSASVGDRVTITCRASQNINKWLAWYQQRPGKAPQLLIYKASSLESGVPSRFSGSGSGTEYTLTISSLQPDDFATYYCQQYNSYATFGQGTKVEIKRSRGGGGSGGGGSGGGGSLEMAQVQLVQSGAEVKKPGESLKISCKGSGYNFSNKWIGWVRQLPGRGLEWIAIIYPGYSDITYSPSFQGRVTISADTSINTAYLHWHSLKASDTAMYYCVRHTALAGFDYWGLGTLVTVSS
notes: also called Ext002 #15
binding result [2]: no binding | binding result [3]: binds

B7: WT1A1-B peptide (AMFPNAPYL) (peptide)
peptide: AMFPNAPYL
binding result [18]: binds

B8: WT1-A1 heteroclitic peptide (tyrosine at position 1 of RMF) (peptide)
peptide: YMFPNAPYL
binding result [18]: binds

B9: scFv phage clone 23 (scFv)
scFv: QSVLTQPPSVSGAPGQRVTISCTGSSSNIGAGYDVHWYQQLPGTAPKLLIYGNSNRPSGVPDRFSGSKSGTSASLAISGLQSEDEADYYCAAWDDSLNGYVFGTGTKLTVLGSRGGGGSGGGGSGGGGSLEMAEVQLVETGGGLLQPGGSLRLSCAASGFSVSGTYMGWVRQAPGKGLEWVALLYSGGGTYHPASLQGRFIVSRDSSKNMVYLQMNSLKAEDTAVYYCAKGGAGGGHFDSWGQGTLVTVSS
notes: also called Ext002 #23; EXT002-23
binding result [2]: no binding | binding result [19]: no binding | binding result [3]: binds
